B1: Trinucleotide repeat-containing gene 6B protein (Homo sapiens), Q9UPQ9-2 (parent)
chain: MQTNEGEVSEESSSKVEQEDFVMEGHGKTPPPGEESKQEKEQEREEQLMEDKKRKKEDKKKKEATQKVTEQKTKVPEVTKPSLSQPTAASPIGSSPSPPVNGGNNAKRVAVPNGQPPSAARYMPREVPPRFRCQQDHKVLLKRGQPPPPSCMLLGGGAGPPPCTAPGANPNNAQVTGALLQSESGTAPVWSKSTPPAPDNGTSAWGEPNESSPGWGEMDDTGASTTGWGNTPANAPNAMKPNSKSMQDGWGESDGPVTGARHPSWEEEEDGGVWNTTGSQGSASSHNSASWGQGGKKQMKCSLKGGNNDSWMNPLAKQFSNMGLLSQTEDNPSSKMDLSVGSLSDKKFDVDKRAMNLGDFNDIMRKDRSGFRPPNSKDMGTTDSGPYFEKGGSHGLFGNSTAQSRGLHTPVQPLNSSPSLRAQVPPQFISPQVSASMLKQFPNSGLSPGLFNVGPQLSPQQIAMLSQLPQIPQFQLACQLLLQQQQQQQLLQNQRKISQAVRQQQEQQLARMVSALQQQQQQQQRQPGMKHSPSHPVGPKPHLDNMVPNALNVGLPDLQTKGPIPGYGSGFSSGGMDYGMVGGKEAGTESRFKQWTSMMEGLPSVATQEANMHKNGAIVAPGKTRGGSPYNQFDIIPGDTLGGHTGPAGDSWLPAKSPPTNKIGSKSSNASWPPEFQPGVPWKGIQNIDPESDPYVTPGSVLGGTATSPIVDTDHQLLRDNTTGSNSSLNTSLPSPGAWPYSASDNSFTNVHSTSAKFPDYKSTWSPDPIGHNPTHLSNKMWKNHISSRNTTPLPRPPPGLTNPKPSSPWSSTAPRSVRGWGTQDSRLASASTWSDGGSVRPSYWLVLHNLTPQIDGSTLRTICMQHGPLLTFHLNLTQGTALIRYSTKQEAAKAQTALHMCVLGNTTILAEFATDDEVSRFLAQAQPPTPAATPSAPAAGWQSLETGQNQSDPVGPALNLFGGSTGLGQWSSSAGGSSGADLAGASLWGPPNYSSSLWGVPTVEDPHRMGSPAPLLPGDLLGGGSDSI

Variants of: B1
Conditions: with ago2_human AGO2, Q9UKV8
ago2_human AGO2, Q9UKV8, sequence (Q9UKV8 whole entry): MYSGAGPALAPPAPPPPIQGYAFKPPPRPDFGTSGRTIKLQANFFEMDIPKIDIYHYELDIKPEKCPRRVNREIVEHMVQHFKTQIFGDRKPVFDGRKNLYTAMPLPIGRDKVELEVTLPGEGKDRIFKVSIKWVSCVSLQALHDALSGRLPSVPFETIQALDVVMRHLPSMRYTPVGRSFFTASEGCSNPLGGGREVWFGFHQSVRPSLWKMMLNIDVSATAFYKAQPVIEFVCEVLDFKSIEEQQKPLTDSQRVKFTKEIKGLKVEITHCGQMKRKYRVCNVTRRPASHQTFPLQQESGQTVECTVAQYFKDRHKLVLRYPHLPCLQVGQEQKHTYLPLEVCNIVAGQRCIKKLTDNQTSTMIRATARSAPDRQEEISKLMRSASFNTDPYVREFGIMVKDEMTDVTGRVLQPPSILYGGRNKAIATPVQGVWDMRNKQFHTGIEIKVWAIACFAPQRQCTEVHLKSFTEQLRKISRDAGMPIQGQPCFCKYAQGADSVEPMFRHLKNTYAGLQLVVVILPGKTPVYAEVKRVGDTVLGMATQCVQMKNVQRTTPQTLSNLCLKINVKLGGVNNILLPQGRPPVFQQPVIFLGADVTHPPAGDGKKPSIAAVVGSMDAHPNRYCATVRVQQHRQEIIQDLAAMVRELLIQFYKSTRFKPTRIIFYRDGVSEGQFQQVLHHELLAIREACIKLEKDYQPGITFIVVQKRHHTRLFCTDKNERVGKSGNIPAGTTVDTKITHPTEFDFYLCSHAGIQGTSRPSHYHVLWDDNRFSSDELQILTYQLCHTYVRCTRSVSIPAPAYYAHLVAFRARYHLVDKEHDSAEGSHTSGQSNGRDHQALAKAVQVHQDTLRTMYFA

Effect of a mutation on the interaction, disrupting interaction:
W205A;W215A
W205F
W215F

Source: IntAct's records for PubMed 17891150
